One experiment deals with T1, alpha-ENaC (Homo sapiens, UniProt P37088+P51168+P51170).
T1 construct: expressed in transfected cells; host or cells: HEK293T
T1 sequence (P37088 1-669): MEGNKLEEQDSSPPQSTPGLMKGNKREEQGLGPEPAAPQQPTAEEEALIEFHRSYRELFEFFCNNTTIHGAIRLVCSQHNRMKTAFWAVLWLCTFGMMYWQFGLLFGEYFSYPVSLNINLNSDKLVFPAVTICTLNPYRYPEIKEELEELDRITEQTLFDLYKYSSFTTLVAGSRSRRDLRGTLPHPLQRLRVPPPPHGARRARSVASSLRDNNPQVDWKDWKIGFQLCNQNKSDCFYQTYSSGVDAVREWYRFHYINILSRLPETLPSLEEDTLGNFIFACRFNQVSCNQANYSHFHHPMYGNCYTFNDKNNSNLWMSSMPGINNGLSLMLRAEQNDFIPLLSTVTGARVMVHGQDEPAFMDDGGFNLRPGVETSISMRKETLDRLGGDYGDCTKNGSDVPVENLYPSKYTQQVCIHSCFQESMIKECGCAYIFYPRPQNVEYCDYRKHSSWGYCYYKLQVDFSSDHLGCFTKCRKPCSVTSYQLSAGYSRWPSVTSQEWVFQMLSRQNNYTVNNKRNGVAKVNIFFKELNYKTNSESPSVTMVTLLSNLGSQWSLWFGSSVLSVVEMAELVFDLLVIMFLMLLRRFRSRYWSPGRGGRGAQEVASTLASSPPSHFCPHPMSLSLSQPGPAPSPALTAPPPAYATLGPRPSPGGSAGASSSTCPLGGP
T1 sequence (P51168 1-640): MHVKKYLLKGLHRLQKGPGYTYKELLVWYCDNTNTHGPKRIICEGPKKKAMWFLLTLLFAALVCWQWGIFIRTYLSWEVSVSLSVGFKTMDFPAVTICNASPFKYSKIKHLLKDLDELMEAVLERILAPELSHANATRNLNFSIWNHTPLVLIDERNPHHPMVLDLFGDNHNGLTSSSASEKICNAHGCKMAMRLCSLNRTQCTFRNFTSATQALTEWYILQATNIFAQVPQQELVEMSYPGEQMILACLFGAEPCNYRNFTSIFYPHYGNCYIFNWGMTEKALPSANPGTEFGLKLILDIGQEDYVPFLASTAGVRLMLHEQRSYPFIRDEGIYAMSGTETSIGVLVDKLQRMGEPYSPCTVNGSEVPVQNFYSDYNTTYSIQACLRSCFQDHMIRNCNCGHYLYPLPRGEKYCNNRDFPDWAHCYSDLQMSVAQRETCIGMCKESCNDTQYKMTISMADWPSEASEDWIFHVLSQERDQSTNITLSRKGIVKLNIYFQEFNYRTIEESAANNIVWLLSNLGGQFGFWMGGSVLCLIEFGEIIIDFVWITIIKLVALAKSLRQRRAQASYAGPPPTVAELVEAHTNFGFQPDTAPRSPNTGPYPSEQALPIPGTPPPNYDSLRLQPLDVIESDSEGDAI
T1 sequence (P51170 1-649): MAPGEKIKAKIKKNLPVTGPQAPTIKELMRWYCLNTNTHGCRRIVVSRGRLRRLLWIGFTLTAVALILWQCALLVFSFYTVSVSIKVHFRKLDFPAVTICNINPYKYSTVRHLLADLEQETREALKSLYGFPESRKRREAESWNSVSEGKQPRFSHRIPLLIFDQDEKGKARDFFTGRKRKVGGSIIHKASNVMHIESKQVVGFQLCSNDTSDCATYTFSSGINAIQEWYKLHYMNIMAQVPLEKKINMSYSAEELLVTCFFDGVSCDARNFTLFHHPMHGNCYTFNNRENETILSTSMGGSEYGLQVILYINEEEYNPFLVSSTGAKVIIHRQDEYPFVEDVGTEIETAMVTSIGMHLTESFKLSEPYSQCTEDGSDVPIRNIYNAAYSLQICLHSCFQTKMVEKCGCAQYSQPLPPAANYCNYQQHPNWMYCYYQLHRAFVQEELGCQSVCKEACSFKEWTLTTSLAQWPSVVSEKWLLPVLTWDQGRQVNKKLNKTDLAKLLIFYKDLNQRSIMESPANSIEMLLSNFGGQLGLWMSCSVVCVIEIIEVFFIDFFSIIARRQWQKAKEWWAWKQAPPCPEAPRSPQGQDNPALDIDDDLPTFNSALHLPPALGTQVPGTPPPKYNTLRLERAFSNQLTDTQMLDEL
Briefly: Internalization of alpha-ENaC in HEK293T cells, GFP-tagged alpha-ENaC co-expressed with beta and gamma ENaC. Format: cell-based. As to conditions: beta-ENaC co-expressed, FIGS. 5A-5U. An excerpt: HEK293T cells were transfected with gfp-αENaC where gfp was fused at the N-terminus of ENaC and unlabeled βENaC and γENaC using lipofectamine in 384 well plates as per the manufacturer's instructions and as published previously (see, e.g., Hobbs et al. Am J Physiol Lung Cell Mol Physiol. 2013 December; 305(12):L990-L1001. doi: 10.1152/ajplung.00103.2013. Epub 2013 October; Garland et al. Proc Natl Acad Sci USA. 2013 Oct. 1; 110(40):15973-8. doi: 10.1073/pnas.1311999110. Epub 2013 Sep. 16.; Tan et al. J Physiol. 2014 Dec. 1; 592(Pt 23):5251-68). Twenty-four hours later, peptide or vehicle control were added at t=0 and fluorescence was read using a Tecan M1000 plate reader 3 h later. Fluorescence was read at 488 nm (excitation)/510 nm (emission).

The target of experiment [1] is T2, ENaC (Homo sapiens, UniProt P37088+P51168+P51170).
T2 construct: Peptides were added mucosally to HBECs at 30 μM and ASL height measured 3 h later by XZ-confocal microscopy; endogenous in cells; host or cells: primary human bronchial epithelial cultures (HBECs) at air-liquid interface
T2 sequence (P37088 1-669): T1 sequence (P37088 1-669)
T2 sequence (P51168 1-640): T1 sequence (P51168 1-640)
T2 sequence (P51170 1-649): T1 sequence (P51170 1-649)
Briefly: Airway surface liquid (ASL) height in human bronchial epithelial cultures by XZ-confocal microscopy. Format: cell-based. As to conditions: FIGS. 3A, 3B; for potency compared to S18 (dose response): 4.

The next experiment relates to βENaC-Tg mice. Format: in vivo. The settings on record: βENaC-Tg C57BL:C3H mice, fourteen-day treatment; FIGS. 7C, 7D, 7F. The source says:
Like CF patients, βENaC-Tg mice are disease free at birth, but soon develop obstructive lung disease (Zhou, Z., et al. Am J Respir Crit Care Med 178, 1245-1256 (2008)). C57BL:FVB and C57BL:C3H mixed strains have 90% and 50% mortality, respectively, and the reproducibility of the disease on these backgrounds is sufficiently high that reliable data are produced with n of about 8-10 animals/group. Furthermore, the βENaC-Tg mouse responds to therapeutic interventions in a fashion similar to CF/COPD in humans, and the development of lung disease can be prevented following inhibition of lung disease at birth (Livraghi, A., et al. J Immunol 182, 4357-4367 (2009)). S18-derived peptides or vehicle were dosed one to three times a day by intranasal instillation (1 μl/g body weight) for 14 days in parallel cohorts of mice. Mice were weighed daily and, if a diuretic effect was found, the volume excreted was replaced by sub-cutaneous injections of sterile saline. At the end of the treatment, mice were sacrificed for phenotypic analysis.

The target in experiment [2] is T2, ENaC. Briefly: Airway surface liquid (ASL) height in human bronchial epithelial cultures by XZ-confocal microscopy. Format: cell-based. As to conditions: peptides added mucosally to HBECs at 30 μM, ASL height measured 3 h later; FIGS. 2A-2B. An excerpt: Cells were harvested by enzymatic digestion from human bronchial tissue as previously described under a protocol approved by the UNC School of Medicine IRB (Tarran et al., J. Gen. Physiol. 127:591 (2006)). Human excess donor lungs and excised recipient lungs were obtained at the time of lung transplantation from portions of main stem or […] bronchi and cells were harvested by enzymatic digestion. All preparations were maintained at an air-liquid interface in a modified bronchial epithelial medium and used 2-5 weeks after seeding on 12 mm T-Clear inserts (Corning Costar) coated with human placental type VI collagen (Sigma). Phosphate buffered saline (PBS) was used for washing human bronchial epithelial culture mucosal surfaces.
To label airway surface liquid, Ringer containing rhodamine-dextran (2 mg/ml; Invitrogen) was added to human bronchial epithelial culture mucosal surfaces. […] 10 points per culture were scanned and an average airway surface liquid height determined. […]
To confirm our alanine-scan data, we made a peptide of subsequence A (LPVPLDQT (SEQ ID NO:113); FIG. 1). […] Peptides were added mucosally to HBECs at 30 μM and ASL height measured 3 h later by XZ-confocal microscopy. […]

“Also recorded” adds a separate entry of the source. Square brackets hold non-standard residues; d marks the D form. Ends that are not written are not given here. Peptide text beside a SMILES is read from it. Nle = CCCC[C@H](N)C(=O)O

With `N=C(N)NC(=O)c1nc(Cl)c(N)nc1N` [amiloride], the “reduction of alpha-ENaC / functional receptor on the cell surface” value at alpha-ENaC is given as “does not reduce the amount of functional receptor on the surface of cells”.
Regarding `CCCC[C@H](NC(=O)[C@@H]1CCCN1C(=O)[C@H](CC(C)C)NC(=O)[C@@H](C)NC(=O)[C@@H](C)N)C(=O)N1CCC[C@H]1C(=O)N[C@@H](CC(C)C)C(=O)N[C@@H](CC(=O)O)C(=O)N[C@@H](CCC(N)=O)C(=O)N[C@H](C(=O)N[C@H](C)C(=O)N[C@H](C)C(N)=O)[C@@H](C)O` [SEQ ID NO:5, aaLPNlePLDQTaa] (H-[dA][dA]LP[Nle]PLDQT[dA][dA]-NH2; N-terminus assumed), the “potency compared to S18 (dose response)” value at ENaC [1] is “log-fold increase in potency; also recorded: significant increase in potency; also recorded: increased potency”.
On to “SEQ ID NO:127: NH3-LPIPLDQT-NH2 (H-LPIPLDQT-NH2)”, for which, in the experiment on βENaC-Tg mice, the percent survival entry is “increased percent survival”.
Turning to aaLPVPNleDQTaa [SEQ ID NO:6], at ENaC [1], the “efficacy compared to S18 (dose response)” value is given as “diminished”.
For the molecule “aaLPVPLDQTaa ([dA][dA]LPVPLDQT[dA][dA]-NH2; N-terminus assumed; SMILES CC(C)C[C@H](NC(=O)[C@@H]1CCCN1C(=O)[C@@H](NC(=O)[C@@H]1CCCN1C(=O)[C@H](CC(C)C)NC(=O)[C@@H](C)NC(=O)[C@@H](C)N)C(C)C)C(=O)N[C@@H](CC(=O)O)C(=O)N[C@@H](CCC(N)=O)C(=O)N[C@H](C(=O)N[C@H](C)C(=O)N[C@H](C)C(N)=O)[C@@H](C)O) [SEQ ID NO:3, a = D-alanine]”, in the experiment with ENaC [1], the “efficacy compared to S18 (dose response)” value is on record as “identical dose responses; also recorded: equal” and the “potency compared to S18 (dose response)” value was “identical dose responses; also recorded: equal”.
With “DQTLPLNVNP (not fully specified) [SEQ ID NO:114, NH3-…-NH2, overlapping control peptide of S18]”, the “activity on ASL height / inhibition of ENaC compared with S18” value with ENaC [2] is “inactive”.
In the case of “aaLPVPLDQTLPLNVNPaa ([dA][dA]LPVPLDQTLPLNVNP[dA][dA]-NH2; N-terminus assumed; SMILES CC(C)C[C@H](NC(=O)[C@@H]1CCCN1C(=O)[C@H](CC(C)C)NC(=O)[C@@H](NC(=O)[C@H](CCC(N)=O)NC(=O)[C@H](CC(=O)O)NC(=O)[C@H](CC(C)C)NC(=O)[C@@H]1CCCN1C(=O)[C@@H](NC(=O)[C@@H]1CCCN1C(=O)[C@H](CC(C)C)NC(=O)[C@@H](C)NC(=O)[C@@H](C)N)C(C)C)[C@@H](C)O)C(=O)N[C@@H](CC(N)=O)C(=O)N[C@H](C(=O)N[C@@H](CC(N)=O)C(=O)N1CCC[C@H]1C(=O)N[C@H](C)C(=O)N[C@H](C)C(N)=O)C(C)C) [SEQ ID NO:2, a = D-alanine]”, in the experiment with ENaC [1], the “efficacy compared to S18 (dose response)” value is on record as “equal” and the “potency compared to S18 (dose response)” value was “equal”.
As for “aaLPVPLDQSaa ([dA][dA]LPVPLDQS[dA][dA]-NH2; N-terminus assumed; SMILES CC(C)C[C@H](NC(=O)[C@@H]1CCCN1C(=O)[C@@H](NC(=O)[C@@H]1CCCN1C(=O)[C@H](CC(C)C)NC(=O)[C@@H](C)NC(=O)[C@@H](C)N)C(C)C)C(=O)N[C@@H](CC(=O)O)C(=O)N[C@@H](CCC(N)=O)C(=O)N[C@@H](CO)C(=O)N[C@H](C)C(=O)N[C@H](C)C(N)=O) [SEQ ID NO:9]”, the “potency compared to S18 (dose response)” value with ENaC [1] is “diminished”.

For the origin of these results see US20200031866A1, “PEPTIDE INHIBITORS OF SODIUM CHANNELS” (SPYRYX BIOSCIENCES, INC., priority 2016, published 2020).
